According to paper PMC2924388:
pKd: −log10 of the molar value.

How the values were obtained:
[1] = target: HIV-1 M-type (NL4.3) capsid N-terminal domain (HIV-1 M-type (NL4.3)) (UniProt P12493); assay: ITC; MicroCal ITC200; cyclophilin (typical concentration 1.4 mM) in the syringe, capsid (typical concentration 120 µM) in the cell; 50 mM KPO4 pH 7.4, 100 mM NaCl, 1 mM DTT; 15°C; one-state model
[2] = target: HIV-2 capsid N-terminal domain with an alanine inserted at position 88 (HIV-2 (ROD)); assay: as above
[3] = target: HIV-1 M-type (NL4.3) capsid N-terminal domain (HIV-1 M-type (NL4.3)) (UniProt P12493)
[4] = target: HIV-2 (ROD) capsid N-terminal domain (HIV-2 (ROD))
[5] = target: HIV-2 (ROD) capsid N-terminal domain (HIV-2 (ROD)); assay: ITC; MicroCal ITC200; cyclophilin (typical concentration 1.4 mM) in the syringe, capsid (typical concentration 120 µM) in the cell; 50 mM KPO4 pH 7.4, 100 mM NaCl, 1 mM DTT; 15°C; one-state model

CypA domain of Macaca fascicularis TRIMCyp2 (Mafa TRIMCyp2) (domain or fragment)
pKd [1]: 4.92 | pKd [2]: 3.68

CypA domain of Mafa TRIMCyp2 with Cyp K143E (K446E in TRIMCyp) (domain or fragment)
restriction of the infectivity of the HIV-1 vector in CRFK cells expressing whole Mafa TRIMCyp2 Cyp K143E; partially rescued by 5 µM cyclosporine (orders of magnitude) [3]: 2 | restriction of the infectivity of the HIV-2 vector in CRFK cells expressing whole Mafa TRIMCyp2 Cyp K143E; completely rescued by 5 µM cyclosporine (orders of magnitude) [4]: 2 | pKd [1]: 4.92 | pKd [5]: 4.89 | pKd [2]: 5.05
